{"source": "patent US20090170166A1", "molecular_target": "T1, recombinant uracil-DNA-glycosylase inhibitor (rUgi), P14739", "T1 chain": "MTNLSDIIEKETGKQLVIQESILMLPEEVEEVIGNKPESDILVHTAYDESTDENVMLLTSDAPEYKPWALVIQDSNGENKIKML"}
{"protein": "uracil-DNA-glycosylase (UDG) (protein) ANELTWHDVLAEEKQQPYFLNTLQTVASERQSGVTIYPPQKDVFNAFRFTELGDVKVVILGQDPYHGPGQAHGLAFSVRPGIAIPPSLLNMYKELENTIPGFTRPNHGYLESWARQGVLLLNTVLTVRAGQAHSHASLGWETFTDKVISLINQHREGVVFLLWGSHAQKKGAIIDKQRHHVLKAPHPSPLSAHRGFFGCNHFVLANQWLEQRGETPIDWMPVLPAESE", "values": [{"measurement": "digestion of DNA-dUTP by UDG 1/35 (agarose gel), without and after 10 min at 90 C", "value": "the two dilutions of Ugi indeed inhibit the digestion of DNA by UDG (lanes D and G); after a treatment of 10 minutes at 90° C., the Ugi remains active because it still inhibits the UDG (lanes J and M)"}, {"measurement": "digestion of DNA-dUTP by UDG 1/35, 60 min at 37 C (agarose gel)", "value": "the two dilutions of Ugi indeed inhibit UDG (lanes D and G)"}, {"measurement": "digestion of DNA-dUTP by UDG (agarose gel), UDG 1/25", "value": "at the highest concentration of UDG, the UDG activity may be inhibited by Ugi at 1/20 000 but not at 1/30 000"}, {"measurement": "digestion of DNA-dUTP by UDG (agarose gel), UDG 1/50", "value": "at the lowest concentration of UDG, the UDG activity is inhibited both by Ugi at 1/20 000 and at 1/30 000"}]}
